Assay results taken from patent publication US20220213181A1 (Novartis, published 2022).

Biological target: T1, Human ANGPTL4(26-406)-FLAG-His6-Avi (human, UniProt Q9BY76 24-406, biotin on the C-terminal Avi tag (BirA) where the protein is immobilised)
T1 construct: the text calls it 20 amino acids), then QP, ANGPTL4 26-406 and FLAG-His6-Avi; the signal peptide is left out here; also called full length human ANGPTL4; hANGPTL4
T1 sequence: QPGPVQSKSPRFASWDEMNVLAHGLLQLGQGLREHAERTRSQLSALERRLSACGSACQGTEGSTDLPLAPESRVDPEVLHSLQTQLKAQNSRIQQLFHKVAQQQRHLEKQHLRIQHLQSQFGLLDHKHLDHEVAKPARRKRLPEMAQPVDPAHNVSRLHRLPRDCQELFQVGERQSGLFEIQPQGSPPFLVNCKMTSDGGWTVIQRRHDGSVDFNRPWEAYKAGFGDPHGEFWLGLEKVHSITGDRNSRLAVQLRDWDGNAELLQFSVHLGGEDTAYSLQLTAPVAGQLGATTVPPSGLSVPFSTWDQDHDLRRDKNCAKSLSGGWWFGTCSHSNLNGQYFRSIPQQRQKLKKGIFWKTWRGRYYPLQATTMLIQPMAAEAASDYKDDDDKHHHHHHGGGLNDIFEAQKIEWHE
Assay: Octet (ForteBio) kinetics, biotinylated antigen on streptavidin sensor, IgG in solution; upper limit by the footnote
Method: Dissociation constants (KD) were determined for selected antibodies of the invention by using an Octet (ForteBio) kinetic binding assay. ForteBio 10× Kinetics Buffer (ForteBio, catalog number 18-5032) was diluted 10-fold with DPBS (Life Technologies, catalog number 14190-136), and the resulting solution was added (0.2 ml per well) to a 96-well plate (Greiner, catalog number 65520). Streptavidin sensors (ForteBio, catalog number 18-5020) were immersed in the solution and equilibrated for at least 10 min at room temperature. In a second 96-well plate (Greiner, catalog number 65520), sensors were washed in 1× Kinetics buffer, and then immersed in 200 ul of 25 nM biotinylated human ANGPTL4 or a biotinylated reference protein (for background subtraction) for 1000 sec at […] room temperature. […] The sensors were then transferred to a well containing 200 μl 1× Kinetics buffer, and antibody dissociation was monitored for 1200 seconds. Background-corrected association and dissociation curves were globally fitted by Octet Software (ForteBio) to generate association (kₐ) and dissociation (kd) rate constants, which in turn were used to calculate equilibrium dissociation constants (KD).

Kd: ≤ 0.017 nM
B1: NEG278 (antibody, human IgG1, kappa, V domains shown)
VH: QVQLVQSGAEVKKPGASVKVSCKASAYTFTSSWMQWVRQAPGQGLEWMGEIDPSDNYANYNQKFQGRVTLTVDTSTSTAYMELSSLRSEDTAVYYCASGSYFSNFFDYWGQGTLVTVSS
VL: EIVMTQSPATLSVSPGERATLSCKASQDIGSNLNWLQQKPGQAPRRLIYAASVREPGIPARFSGSRSGSEYTLTISSLQSEDFAVYYCLQYASSPWTFGQGTKVEIKR
notes: humanized, hIgG1/kappa, parental antibody 19C16
